Measured values published in patent publication US20140186348A1 (NOVELMED THERAPEUTICS, published 2014).
Substitutions are numbered along the chain they refer to. Values belong to the binder of their own block, whether it stands above or below them.

Legend:
[1] = target: T1, human properdin (human, UniProt P27918 28-469); experiment: cell-based or functional assay
[2] = target: T1, human properdin; experiment: competition ELISA: varied antibody with 50 nM properdin on C3b-coated wells
[3] = target: T1, human properdin; experiment: properdin ELISA
[4] = target: T1, human properdin; experiment: properdin ELISA (FIG. 27)

T1 sequence (P27918 28-469 limits assumed): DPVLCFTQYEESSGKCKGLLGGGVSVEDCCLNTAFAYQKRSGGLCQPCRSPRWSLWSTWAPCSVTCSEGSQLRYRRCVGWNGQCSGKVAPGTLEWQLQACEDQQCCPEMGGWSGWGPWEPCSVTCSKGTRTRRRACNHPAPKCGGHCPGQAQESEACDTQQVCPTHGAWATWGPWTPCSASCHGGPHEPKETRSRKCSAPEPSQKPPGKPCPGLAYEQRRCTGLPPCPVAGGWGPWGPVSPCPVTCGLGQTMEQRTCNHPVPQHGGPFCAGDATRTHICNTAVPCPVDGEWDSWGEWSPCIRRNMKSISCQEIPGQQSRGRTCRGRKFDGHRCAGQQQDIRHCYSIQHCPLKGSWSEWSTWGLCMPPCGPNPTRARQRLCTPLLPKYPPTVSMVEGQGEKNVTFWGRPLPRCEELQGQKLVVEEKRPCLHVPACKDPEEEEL

B2: NM9401-Fab (Fab, V domains shown)
VH: QVQLQQSAPELARPGASVKMSCTASGYIFTNYPIHWVKQRPGQGLEWIGFIDPGGGYDEPDERFRDRATLTADKSSSTAYMQLSSLTSEDSAIYYCARRGGGYYLDYWGQGTTLTVSS
VL: DIQMTQTTSSLSASLGDRVTISCRASQDISFFLNWYQQKPDGTVKLLIYYTSRYHSGVPSRFSGSGSGTDFSLTINNLEQEDFATYFCQHGNTLPWTFGGGTKLEIKR
notes: Fab fragment of the murine NM9401 IgG
concentration inhibiting properdin binding to C3b (quantity not named, IC50 implied) [2]: 72 nM
molar ratio of antibody to properdin [2]: 1.2

B3: BAP010-1 (chimeric anti-properdin IgG1) (antibody, V domains shown)
VH: B2 VH
VL: DIQMTQTTSSLSASLGDRVTISCRASQDISFFLNWYQQKPDGTVKLLIYYTSRYHSGVPSRFSGSGSGTDFSLTINNLEQEDFATYFCQHGNTLPWTFGGGTKLEIK
notes: Murine variable domains (heavy chain clone mH6-3g, light chain clone mK10) fused in frame to a human IgG1 constant region and a human kappa constant region; also called chimeric anti-properdin monoclonal antibody; recombinant antibody BAP010-1
Kd [3]: ~0.054 nM
erythrocyte lysis assay using rabbit erythrocytes, IC50 [1]: 20 to 30 nM

B5: NM9401-F(ab′)2 (other)
VH: QVQLQQSAPELARPGASVKMSCTASGYIFTNYPIHWVKQRPGQGLEWIGFIDPGGGYDEPDERFRDRATLTADKSSSTAYMQLSSLTSEDSAIYYCARRGGGYYLDYWGQGTTLTVSSAKTT
VL: DIQMTQTTSSLSASLGDRVTISCRASQDISFFLNWYQQKPDGTVKLLIYYTSRYHSGVPSRFSGSGSGTDFSLTINNLEQEDFATYFCQHGNTLPWTFGGGTKLEIKRADAAPTVSIFPPSSEQLTSGGASVVCFLNN
notes: F(ab′)2 fragment of the murine NM9401 IgG
concentration inhibiting properdin binding to C3b (quantity not named, IC50 implied) [2]: 29 nM
molar ratio of antibody to properdin [2]: 0.5

Next, values leading:

erythrocyte lysis assay using rabbit erythrocytes, IC50 [1]: 20 to 30 nM
B1: NM9401-IgG (murine anti-properdin monoclonal antibody, IgG1) (antibody, V domains shown)
VH: B2 VH
VL: B2 VL

binding result [4]: binds
B4: BAP010hum02 (humanized anti-properdin monoclonal antibody) (antibody, V domains shown)
VH: QVQLQESGPGLVKPSQTLSLTCTVSGYIFTNYPIHWVRQAPGKGLEWVSFIDPGGGYDEPDERFRDRVTISVDTSKNQFSLKLSSVTAADTAVYYCARRGGGYYLDYWGQG
VL: EIVLTQSPATLSLSPGERATLSCRASQDISFFLNWFQQRPGQSPRRLIYYTSRYHSGIPPRFSGSGYGTDFTLTINNIESEDAAYYFCQHGNTLPWTFGQG
notes: Labelled _HC and _LC; Expressed as human IgG from BioAtla's mammalian vector; also called BAP010hum02_HC

binding result [4]: binds
B6: BAP010hum03 (humanized anti-properdin monoclonal antibody) (antibody, V domains shown)
VH: EVQLVQSGAEVKKPGESLRISCKGSGYIFTNYPIHWIRQSPSRGLEWLGFIDPGGGYDEPDERFRDRVTISADKSISTAYLQWSSLKASDTAMYYCARRGGGYYLDYWGQG
VL: DIQMTQSPSSLSASVGDRVTITCRASQDISFFLNWYQQKPGKAPKLLIYYTSRYHSGVPSRFSGSGSGTEFTLTISSLQSEDFAVYYCQHGNTLPWTFGQG
notes: Labelled _HC and _LC; Expressed as human IgG; also called BAP010hum03_HC

binding result [4]: binds
B7: BAP010hum10 (humanized anti-properdin monoclonal antibody) (antibody, V domains shown)
VH: QVQLQESGPGLVKPSQTLSLTCTVSGYIFTNYPIHWVRQATGQGLEWMGFIDPGGGYDEPDERFRDRVTITADKSTSTAYMELSSLRSEDTAVYYCARRGGGYYLDYWGQG
VL: B6 VL with V58I, S60P, S67Y, L73F, Q79E, S80A, F83A, V85T
notes: Labelled _HC and _LC; Expressed as human IgG; also called BAP010hum10_HC
